Measured values published in the DeepSol protein solubility set.

test: soluble on expression in E. coli; label from the status in PepcDB or PDB records

Row | Sequence | soluble on expression in E. coli
1 | SPVVVVTGASRGIGKAIALSLGKAGCKVLVNYARSAKAAEEVSKQIEAYGGQAITFGGDVSKEADVEAMMKTAIDAWGTIDVVVNNAGITRDTLLIRMKKSQWDEVIDLNLTGVFLCTQAATKIMMKKRKGRIINIASVVGLIGNIGQANYAAAKAGVIGFSKTAAREGASRNINVNVVCPGFIASDMTAKLGEDMEKKILGTIPLGRTGQPENVAGLVEFLALSPAASYITGQAFTIDGGIAI | soluble
2 | MTVKCKAEESLTCSCVDVGTIIDGSDCSVEVHQFYSTEADANAVLERLTKKARNTESDPCEIKSEIVAVENGVQLNASFTFSCQAEAMIFELANR | not soluble
3 | MKMKEFLDLLNESRLTVTLTGAGISTPSGIPDFRGPNGIYKKYSQNVFDIDFFYSHPEEFYRFAKEGIFPMLQAKPNLAHVLLAKLEEKGLIEAVITQNIDRLHQRAGSKKVIELHGNVEEYYCVRCEKKYTVEDVIKKLESSDVPLCDDCNSLIRPNIVFFGENLPQDALREAIGLSSRASLMIVLGSSLVVYPAAELPLITVRSGGKLVIVNLGETPFDDIATLKYNMDVVEFARRVMEEGGIS | soluble
4 | MWEYLIHGEPTPRLKPFLEGVGKALEAQGFRHNPESEAPNLVLNAITPENPRPYRRRAQATFVASVLELPEFPQDPLRELYPYLVRALSNVLLAYVPGQGVKFLTLELGHYGEPEGKGFYERVAARLRPIACSRLVINNIFEPDLEPELWQGDELTESMYRAGKKLKEWDLLPAPFPIEEILPPEDLRHVKRLYGIGGLSYGNLSVRKDEKRFWMSASGVDKANLREIGRDILMVKDYDPERNAILLSVPPHVEPRRVSVDAIEHWMIYREHPEVGAILHVHAWMEGVPATAFNYPCGTYELAQAVADKVREAPDPARAVVGLKNHGLTITGRSLDEILERIEGKLIRTVPMA | soluble
5 | MTIKTPTVKVPGLGTDPLEQRIKEKEKKWKYKIAVLSGKGGVGKSTVAVNLTAALAKMGYFVGILDADIHGPNVAKMLGVDKEEVYAEKFDDGHFEMIPPTTDFMGQVTPIKVMSMGMMVPEDQPVIWRGPLVTKAIKQLLGDVKWGSLDFMIIDFPPGTGDEILTVVQSIKLDAAIIVTTPQEVALLDTGKAVNMMKKMEVPYVAVVENMSYLICPHCGNKIDIFGEGGGEKLAQKEGVDFLGKIPIDLKAREASDLGIPIVLYEDTPAAKAFMELAEKLVNKLKEIKGDGGKELEHHHHHH | soluble
6 | MGSDKIHHHHHHMSAPLLSVRDLSVAFHQGESQSLAVDHVSFDIAPGEILALVGESGSGKSVSAASILKLLPYPAASHPSGQILFDGRDLLTLSEPALRAVRGNDITMIFQEPMTSLNPLHSIEQQIGEILELHQSLTGDAARKRTLELLLQVGIREPEKRLSAFPHELSGGQRQRVMIAMALANRPKLLVADEPTTALDVTVQAQILELLAGLKREHGMSMLFITHDLGIVRKFADRVCVMTGGKIVESGPVEAIFANPQHAYTRKLLASEPRGVPPETDLAKPVVMEGQEIRVWFPIKAGFLRRVVDNVKAVDGVDLTLRAGQTLGVVGESGSGKTTLGLALARLISSRGRIGFLGKNIDGYSFKQMRPLRDRLQVVFQDPFGALSPRMSVGDIIAEGLRVHERGLTAAERDRRVCWALEEVGLDIATRWRYPHEFSGGQRQRIAIARAMVLKPRFVMLDEPTSALDMTVQAQVVDLLRDLQSRHDLAYLFISHDLKVVKALANDIIVMRSGKVVEQGPAQEVFTAPKQDYTKALLAAAFDLKAMNIGGVSQ | not soluble
7 | MSLDAELVDWELAVTTAKKLVRPGPQRSRAEADEIVSELRRLAVVAEGHVQDYTQLVPAGPPTPIAVVDRPEWVRSNVAGLRVATMPLIEKLSDQSRGRLAAAVGRRVTGVQVGSALAYLAGKVLGQFEVFLPPEEYEAGSAASAPSLAKPGAPTPVGRLSLVAPNIAHAEETLRVVPRDFRLWVCLHEQTHRSQFTAVPWLREHLESEIAAFIGATDLDPDVLADRLRSAVTALRSAVRDHGPDTPSVVEALQTPAQRAVLDRLQALMSLLEGHADQVMDAVGPQVVPTVADIRGKFDNRRSGGSPIDRFLRRLLGLDLKMQQYRQGGAFVRAVVAEVGVEGFNHVWQSPRTLPTRPELTDPGAWMLRVLGTREGHHHHHH | soluble
8 | MYTNSDFVVIKALEDGVNVIGLTRGADTRFHHSEKLDKGEVLIAQFTEHTSAIKVRGKAYIQTRHGVIESEGKKAAAAAAA | soluble
9 | MKAVVPTGKIYLGSPFYSDAQRERAAKAKELLAKNPSIAHVFFPFDDGFTDPDEKNPEIGGIRSMVWRDATYQNDLTGISNATCGVFLYDMDQLDDGSAFEIGFMRAMHKPVILVPFTEHPEKEKKMNLMIAQGVTTIIDGNTEFEKLADYNFNECPSNPVRGYGIY | soluble
10 | MSTRTEAVKAYLLDLQDRICTALEQEDGNAHFVEDAWTRPAGGGGRTRVVENGAVIEKGGVNFSHVFGSNLPPSASAHRPELAGRGFEALGVSLVIHPHSPHVPTSHANVRFFIAEKEGEEPVWWFGGGFDLTPYYGVEEDCVHWHRVAERACAPFGDDVYPRYKAWCDSYFHLKHRDEPRGIGGLFFDDVNQWDFDTSFAFIRAIGDAFINAYLPIVRRRKAAAYTVQQREFQEFRRGRYVEFNLVYDRGTLFGLQSGGRTESILMSLPPQVRWGYDWKAAPGSEEARLTDYFLTDRDWLADNAAALEHHHHHH | not soluble
11 | MGSDKIHHHHHHMRKINMMTTFECRVHTLEFDENYQPEMQSTRLTTNFANLARGENRKENLQNVIAMIDKRFNDLANWDNPTNDRYSVKLEIVSIDIDMEGKGKFFPALEWLKTYVIDHKTGKRIDGIVGNNFSSFVRDYDFSVLLLEHNRNKEEFTVPKGYGELHGKLFKYLLTSSAYKEKYSKPPVICLSVATTRTYRRTTNVHPILGVEYHQDNYSLTDEYFAKMGLSVRYFMPPKSVAPYAFYFDSNSDLLNDYTNLELISTIATMEAFQKIYRPEIYNANSVAGQVYKGSLTYQDYSVTKVEYDRVERTQLAIKQGKYTEAHFIKPYKAILDAWMAEK | not soluble
12 | VTQQSRQLLDVTRIYYEPAAAELPRGRQVLERWPDATLVPVESHWRIPELHGDETNVDRWVRIKREALVLGIKKSLTAKPNGRSADFIAPSTANGCAMACAYCYVPRRKGYSNPITVFTNIEQITGYLERHVHRQGVKPEPNQCDPASWVYDLGENSDCSVDAEVSDNVDDLIALFRGLPTAKASFATKHVNRRLLTLDPQGRTRVRFSLMPARVAKLLDVRTSPVPERLGALDDFVAAGYEVHVNLSPVVVHEDWLPVWAALLDELGDATNDATKAQLQAEVIFLTHEENLHRVNLGWHPKAEDLLWRPAMQETKRSQNGGVNVRYRTGDKGRYVQQLLALIEERAPYLRVRYAF | soluble
13 | MSHLRIPANWKVKRSTPFFTKENVPAALLSHHNTAAGVFGQLCVMEGTVTYYGFANETATEPEVKVVINAGQFATSPPQYWHRVELSDDARFNIHFWVEEDHQGEEMYQQKKALEHHHHHH | soluble
14 | MDKIIKSIAQSGAFRAYVLDSTETVALAQEKHNTLSSSTVALGRTLIANQILAANQKGDSKITVKVIGDSSFGHIISVADTKGHVKGYIQNTGVDIKKTATGEVLVGPFMGNGHFVTIIDYGTGNPYTSTTPLITGEIGEDFAYYLTESEQTPSAIGLNVLLDENDKVKVAGGFMVQVLPGASEEEIARYEKRLQEMPAISHLLASKNHVDALLEAIYGDEPYKRLSEEPLSFQCDCSRERFEAALMTLPKADLQAMIDEDKGAEIVCQFCGTKYQFNESDLEAIISDKA | not soluble
15 | AIFGGDGFKDWIGEFSLFKELNEATEMFGKEDEEGTAATETEKADESTDGGMVKHDTNKAESLKKDKLSKEQREKLMEMEKKRREDMMKQVDELAEKLNEKISRYLIAVKSNNLEEFTRKLDQEIEDLKLESFGLELLYLLARVYKTKANNFIMSKKTYGISKIFTGTRDNARSVKSAYNLLSTGLEAQKAMEKMSEVNTDELDQYERAKFESTMAGKALGVMWAMSKFELERKLKDVCNKILNDKKVPSKERIAKAKAMLFIAHKFASARRSPEEAEEARVFEELILGEQEKEHKKHTVAR | not soluble
16 | MTSIQQRAELQRRIWQIANDVRGTVDGWDFKQYVLGALFYRFISENFAAHMEAGDDGIRYAELPDSVITPELKDDAIKTKGYFIYPSQLFANVVARANTNDSLNTDLAAIFTAIESSANGYPSEQDIKGLFADFDTTSNRLGNTVKDKNQRLAAVLKGVAELDFGPFDDAHIDLFGDAYEFLISNYAANAGKSGGEFFTPQHVSRLIARLALHGQKSVNKIYDPACGSGSLLLQAKKPFDERLIEDGFFGQESNHTTYNLARMNMFLHNINYDKFNIQLGNTLLEPHFADEKPFDAIVSNPPYSVKWIGSDDPTLINDERFAPAGVLAPKSKADFAFVLHALHYLSAKGRAAIVCFPGIFYRGGAEAKIRQYLVDNNYVETVIALAPNLFFGTTIAVNILVLSKHKPDTTTQFIDASALFKKETNNNVLLDEHIEQIMAVFASKEEVPHVAQSVPLERIAANNYNLSVSSYVEARDTREVVDIAQLNAELKTTVARIDELRKQIDAIVAEIEGEEDEA | soluble
17 | AIASFITNPSIFSGLKLSNAQRKVKSDLECIRKSKLFQRKRIVPERRRLGLVACGTEEDRTHQRSQWGGEDSDYFGRDPRKETEFWMEHAKEVLESKEVADAVEAHKKSGSSNLTEEQKAWLEFARSITPKPEDEE | soluble
18 | SGSAARQPLFSFGVIADVQYADISDGRSFLGVPRYYRNSILVLQRAVETWNQHGNLKFVINMGDIVDGFCPKDQSLAATKKLVHEFEKFNGPVYHMIGNHCLYNLPREELLPLLKIPGRDGNAYYDFSPTPEYRVVVLDGYDISAVGWPQEHPNTIAALKILEEKNPNTDKNSPAGLEDVARRFVKYNGGVGEKQLQWLDSVLQDASNSNQRVIVCGHVPMSPGVASKAALLWNFDEVMNIIHKYDSVKVCLSGHDHKGGYFVDSHGVHHRSLEAALECPPGTYSFGYIDVYDNKLSLVGTDRMQSTDFEN | soluble
19 | MGSDKIHHHHHHMAERFRPLAMAGLAALALVLAGCGDTLESFGGPTMGSTYSIKYVRGASAPDVQTAKAAVEAILAEVDRQMSTYRDDSLVSRFNALPAQSCMELPLPMLELLRYGGELSEQSQGAFDMTVEPLMNLWGFGPQARVEKVPSAEQIAAVRRDVGHRHLRIDGQRLCKDAAVQLDFDSIAAGYTVDAVGERLKELGVRSYLAEITGELKAEGRKPDGTPWRIAIEAPREGQRVAQQVLALDGYGVSTSGDYRNYFEENGQRYSHTFDPRTGAPIDHHLASVTVIDPSTRNADGLSTLLMVLGPEEGYRFAEKHRLAALFVSRQGNGFDSRTTPRYEQLFGNQGERP | not soluble
20 | IKPGAKMGVIGSGIASVYAKEALQELGLEASFLKIGTYPVPKKLILELLSTVDTVLIFEELEPVVEEQVRILAQEAGLEVSVLGKEGGFVSREGELDVSAFLEALRKAFDLDIEPDSGKVPLELAPRPPSLCAGCSHRATFYSMKKVFGKDAIYPSDIGCYTLGIQSGTVETTLCMGSSISIASGLYHAGEKRPICCSIGDSTFFHTGMNSLLNAVFNKANITVTILDNRITAMTGHQPNPGVGFTVTGEPTVEVSLAELCKAMGAGFVTVV | not soluble
21 | MGSDKIHHHHHHMRGWILYKETATQLKPEWYEIERLLAAAKADNIELEVYAPDEFDLTVTREDNKSILLNGQPVELPDFIIPRMGSGTTYFALAIIRHLERLGVYCLNPSKAIEIVKDKLFSQQLLAEKNLPTPKTMLVKFPVDIDLVERHLGFPVVIKTLSGSQGSGVFLSHKAREFDDLMQLIEATNKNANIILQEFIANSHGRDLRVFTIGGRVAGCYERRGQEDSFKANVSAGGSARPFDITPEIEWLATQTANILDLDVAGIDLLFDNGHYKICEANSSPGFEGLESCLNVDIAAQILHFIRIRLGMFNKDEKNSDPQLTHAGPALANNVTSSKAAE | not soluble
